T1: TRB5 (Arabidopsis thaliana (Col-0), UniProt F4IEY4 1-287)
T1 sequence: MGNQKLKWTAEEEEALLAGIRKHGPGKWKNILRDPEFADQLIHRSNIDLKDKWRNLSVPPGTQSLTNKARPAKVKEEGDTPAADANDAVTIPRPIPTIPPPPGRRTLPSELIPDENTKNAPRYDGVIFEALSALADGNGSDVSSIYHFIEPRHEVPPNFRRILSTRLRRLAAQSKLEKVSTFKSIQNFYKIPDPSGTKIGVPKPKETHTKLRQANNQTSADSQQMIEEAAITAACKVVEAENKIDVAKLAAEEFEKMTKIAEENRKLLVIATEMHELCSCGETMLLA

T2: TRB4 (Arabidopsis thaliana, UniProt F4I7L1 1-296)
T2 sequence: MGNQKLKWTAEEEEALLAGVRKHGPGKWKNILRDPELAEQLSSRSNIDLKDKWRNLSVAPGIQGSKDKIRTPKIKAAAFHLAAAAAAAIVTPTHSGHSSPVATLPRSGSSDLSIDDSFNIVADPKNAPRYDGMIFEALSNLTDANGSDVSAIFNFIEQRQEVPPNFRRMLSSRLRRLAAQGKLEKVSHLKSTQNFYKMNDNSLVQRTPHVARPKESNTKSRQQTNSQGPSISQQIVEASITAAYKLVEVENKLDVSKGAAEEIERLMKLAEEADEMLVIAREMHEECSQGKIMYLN

T3: TRB1 (Arabidopsis thaliana, UniProt Q8VWK4 1-300)
T3 sequence: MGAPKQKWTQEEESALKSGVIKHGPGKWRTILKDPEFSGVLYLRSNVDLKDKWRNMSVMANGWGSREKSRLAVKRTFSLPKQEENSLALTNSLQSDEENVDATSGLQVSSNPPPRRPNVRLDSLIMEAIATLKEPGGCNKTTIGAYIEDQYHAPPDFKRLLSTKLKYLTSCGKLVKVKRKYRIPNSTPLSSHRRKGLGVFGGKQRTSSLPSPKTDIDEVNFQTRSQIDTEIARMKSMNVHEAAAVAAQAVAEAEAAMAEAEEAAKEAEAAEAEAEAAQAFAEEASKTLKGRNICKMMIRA

B1: telo-box (dsDNA)
DNA 1: TTTTTCACGAAAACCCTAATCGCAGTCG
DNA 2: CGACTGCGATTAGGGTTTTCGTGAAAAA
B2: telomeric (four plant telomeric repeats) (dsDNA)
DNA 1: AAACCCTAAACCCTAAACCCTAAACCCT
DNA 2: AGGGTTTAGGGTTTAGGGTTTAGGGTTT

Columns and labels:
[1] = molecular target: T1, TRB5; experiment: EMSA; non-telomeric competitor 1-100x; 10 mM Tris-HCl pH 8.0, 1 mM EDTA, 1 mM DTT, 50 mM NaCl, 5% glycerol; 10 pmol protein, 1 pmol probe, on ice 20 min; 7.5% PAGE, 0.5x TBE, 15 C; settings: protein: recombinant; tags: His-tag (pHGWA); chain copies: 2; label: 32P 5'-end; blunt
[2] = molecular target: T2, TRB4; experiment: as above; settings: protein: recombinant; tags: His-tag (pHGWA); chain copies: 2; label: 32P 5'-end; blunt
[3] = molecular target: T1, TRB5; experiment: EMSA; high-molecular-weight complex not entering the gel; resists 100x non-telomeric competitor; 10 mM Tris-HCl pH 8.0, 1 mM EDTA, 1 mM DTT, 50 mM NaCl, 5% glycerol; 10 pmol protein, 1 pmol probe, on ice 20 min; 7.5% PAGE, 0.5x TBE, 15 C; settings: protein: recombinant; tags: His-tag (pHGWA); chain copies: 2; label: 32P 5'-end; blunt
[4] = molecular target: T3, TRB1; experiment: as above; settings: protein: recombinant; tags: His-tag (pHGWA); label: 32P 5'-end; blunt
[5] = molecular target: T2, TRB4; experiment: as above; settings: protein: recombinant; tags: His-tag (pHGWA); chain copies: 2; label: 32P 5'-end; blunt

Row | Binder | binding result [1] | binding result [2] | binding result [3] | binding result [4] | binding result [5]
1 | B1 | binds | binds |  |  | 
2 | B2 |  |  | binds | binds | binds

— article PMC10167121, “Completing the TRB family: newly characterized members show ancient evolutionary origins and distinct localization, yet similar interactions”
